Our source for the protein stability index values is the supplement of paper PMC10567573.

The nature of this series: protein stability index of a GFP-peptide fusion (GPS, HEK-293T) (PSI 1-6); higher = more stable.
The mark [1] stands for this setting: treatment: DMSO, c terminus: a fixed tail appended.
Setting [2] is: treatment: MLN4924 1 uM, 8 h, c terminus: a fixed tail appended.
Setting [3] is: treatment: DMSO, c terminus: native.
[4] abbreviates: treatment: MLN4924 1 uM, 8 h, c terminus: native.

± gives the standard deviation.
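Also: 24-mer peptide tiles fused after GFP, lentivirally expressed, FACS-sorted into six equal bins by GFP/DsRed ratio, decoded by Illumina sequencing, PSI is the read-weighted mean bin number.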

In the case of TSSLRLNWEAPPGAFDSFLLRFGV [TNXB], the protein stability index stood at 2.06 ± 0.27 under setting [1] and 2.21 ± 0.56 under setting [2].

With TSVLDALSTDMVHAASDPSSSSGR [SMOC2], the protein stability index is 4.99 ± 0.19 under setting [1] and 4.96 ± 0.18 under setting [2].

Consider TVEEAKAEKETELSLQKEQLQLKI [TRIM29], for which the protein stability index was 5.1 ± 0.27 under setting [1] and 5.33 ± 0.3 under setting [2].

Take TYHVGKQCFFNGVFLGNKRSLSER [SPATS1]: the protein stability index is, setting by setting: under setting [1], 2.36 ± 0.21; under setting [2], 2.59 ± 0.22.

Take VAAETGHTSTARLLLHRGAGKEAM [RIPK4]: the protein stability index reads like this: under setting [1], 3.6 ± 0.28; under setting [2], 3.46 ± 0.13.

For the sequence VDALKSDKKVRTIIIRSEVPGIFC [AUH], the protein stability index under setting [1] turned out to be 2.01 ± 0.38 and the protein stability index under setting [2] was 2.35 ± 0.73.

In turn, VELLKNLTKYPTDRDSIWKCLKFL [INTS4] registered a protein stability index under setting [1] of 2.63 ± 0.28 and a protein stability index under setting [2] of 2.08 ± 0.22.

Take VEPVCSGLQAQILHCYRDRPHEVL [CHCHD6]: the protein stability index reads like this: under setting [1], 2.93 ± 0.21; under setting [2], 2.94 ± 0.5.

As to VFRVSSDKLALCHLELTRKLQDLI [FCHO1], the protein stability index reads like this: under setting [1], 2.28 ± 0.46; under setting [2], 2.03 ± 0.61.

Consider VFSFGKHYWELDVDNSCDWALGVC [TRIM43], for which the protein stability index came out at 2.54 ± 0.085 under setting [1] and 2.54 ± 0.39 under setting [2].

Sequence VGIFNTVINPMLNPIIYSFRNPDV [OR3A1] came in with a protein stability index under setting [1] of 2.34 ± 0.48 and a protein stability index under setting [2] of 3.03 ± 0.83.

Regarding VGVDRAFPLKPMVHRKSCSTGEAG [ZC2HC1C], the protein stability index reads like this: under setting [1], 3.74 ± 0.18; under setting [2], 4.2 ± 0.16.

Turning to VHSDLSSIVILDNSPGAYRSHPDN [CTDNEP1], the protein stability index runs as follows: under setting [1], 3.6 ± 0.15; under setting [2], 3.72 ± 0.27.

Turning to VIFALCWFPLHLSRILKKTVYNEM [EDNRA], the protein stability index amounted to 3 ± 0.64 under setting [1] and 2.92 ± 0.68 under setting [2].

Consider VIKMLVNDNKVLRYLAVLESPIPE [EFHC1], for which, under setting [1], the protein stability index turned out to be 2.32 ± 0.31.

With VKDTDDVPMILVGNKCDLEDERVV [RAP1B], the protein stability index under setting [1] stood at 4.65 ± 0.45 and the protein stability index under setting [2] came to 5.02 ± 0.16.

For the sequence VKKCLELFSELAEDKENYKKFYEA [HSP90AB1], the protein stability index was 2.54 ± 0.34 under setting [1] and 2.74 ± 0.33 under setting [2].

The sequence VKPENFLIGRPGNKTQQVIHIIDF [CSNK1G3] showed a protein stability index under setting [1] of 2.4 ± 0.72 and a protein stability index under setting [2] of 2.5 ± 0.34.

VLALFVYVAWNEGSRQWREGKQD [VMA21]: the protein stability index amounted to 2.51 ± 0.49 under setting [3] and 2.85 ± 1.1 under setting [4].

On to VLGPLVALIICYNWLHRRLAGQFL [MOG], for which the protein stability index by setting is: under setting [1], 3.15 ± 0.19; under setting [2], 2.92 ± 0.13.

For VLPCIQQIQRISLNTLTLNVKSEK [FLOT1], the protein stability index reads like this: under setting [1], 2.84 ± 0.14; under setting [2], 2.98 ± 0.24.

Sequence VLQALFYLLDRAVDSFETQRNGLV [PTPN9] came in with a protein stability index under setting [1] of 2.45 ± 0.98 and a protein stability index under setting [2] of 2.66 ± 0.62.

For VLRAEHRGFQEENKALWENNKLKL [CBY2], the protein stability index runs as follows: under setting [1], 3.83 ± 0.45; under setting [2], 3.89 ± 0.28.

On to VLSSTPDHSFSLELGSEVDITEGD [ATF4], for which the protein stability index was determined as 5.32 ± 0.43 under setting [1] and 5.44 ± 0.11 under setting [2].

Regarding VNKITFSEQCYYIFGDLCGNMANL [DVL3], the protein stability index came to 2.66 ± 0.38 under setting [1] and 2.36 ± 0.37 under setting [2].

On to VNPWKREVKLLLSSETPIEGKNMS [APMAP], for which the protein stability index turned out to be 3.44 ± 0.25 under setting [1] and 3.62 ± 0.42 under setting [2].

For VNRTTRTNSTPLRAACFDGHLEVV [FEM1A], the protein stability index under setting [1] came to 2.9 ± 0.35 and the protein stability index under setting [2] came to 2.74 ± 0.34.

VPLCSCRMETPKSREITTLANNQC [EHMT1]: the protein stability index runs as follows: under setting [1], 2.62 ± 0.17; under setting [2], 2.81 ± 0.24.

Regarding VPNAKKLRRKEQLWEKLAKQGELP [NOP53], the protein stability index runs as follows: under setting [1], 3.35 ± 0.33; under setting [2], 3.51 ± 0.39.

Consider VPSESEPPALQNNLLSPLLTGTES [NFE2L1], for which the protein stability index by setting is: under setting [1], 4.92 ± 0.1; under setting [2], 5.07 ± 0.18.

Consider VQARMLSSTTILVQWKEPEEPNGQ [PTPRD], for which the protein stability index is, setting by setting: under setting [1], 3.27 ± 0.34; under setting [2], 3.19 ± 0.35.

Turning to VQITGQPNILFYASTVLKSVGFQS [SLC2A12], the protein stability index is 3.12 ± 0.57 under setting [1] and 2.58 ± 0.45 under setting [2].

In the case of VQKEHEEYMKNLLKVGGILVMPLE [PCMTD2], the protein stability index reads like this: under setting [1], 2.69 ± 0.21; under setting [2], 2.7 ± 0.17.

As for VQKNILAAASPYIRTKLNYNPPKD [GAN], the protein stability index is 2.97 ± 0.34 under setting [1] and 3.24 ± 0.38 under setting [2].

Consider VQREKDLPNYNWNSFGLRFGKREA [KISS1], for which the protein stability index is, setting by setting: under setting [1], 3.28 ± 0.12; under setting [2], 3.19 ± 0.18.

In the case of VRTSYQPSSPGRFTKETTQKNFNN [TRIM29], the protein stability index is 3.93 ± 0.15 under setting [1] and 3.88 ± 0.22 under setting [2].

Turning to VSDSLTWREFHYIQSKLGIVSLLL [STEAP1], the protein stability index reads like this: under setting [1], 2.45 ± 0.54; under setting [2], 2.18 ± 0.25.

Take VSLTSPSAPPTSRTSSGNVWVTHE [PPFIA4]: the protein stability index runs as follows: under setting [1], 3.35 ± 0.21; under setting [2], 3.47 ± 0.32.

In turn, VSSSVIEQLFFVRLVGKTPIETLI [NR2F2] showed a protein stability index under setting [1] of 2.74 ± 0.58 and a protein stability index under setting [2] of 3.05 ± 0.37.

For VSTGSTDNSPTSNSLEGGTDATAF [ADAMTSL2], the protein stability index is, setting by setting: under setting [1], 4.97 ± 0.28; under setting [2], 5.31 ± 0.28.

With VTTRQVRTIVEEVQDGKVISSREQ [KRT17], the protein stability index by setting is: under setting [1], 4.87 ± 0.3; under setting [2], 4.87 ± 0.36.

VVAILAAACLLQLDGLIQQCGETM [GMCL1] yielded a protein stability index under setting [1] of 3.23 ± 0.42 and a protein stability index under setting [2] of 2.92 ± 0.39.

In turn, WELGGGTSLLDLISIPITGDTLRT [DYNC2LI1] showed a protein stability index under setting [1] of 2.22 ± 0.32 and a protein stability index under setting [2] of 2.36 ± 0.22.

As for WEVQVSPTCPVCKDRASPADLRTN [TRIM35], the protein stability index under setting [1] is 3.2 ± 0.43 and the protein stability index under setting [2] was found to be 3.61 ± 0.27.

Turning to WEYPGSQGSPAVDKERFTTLVQDL [CHIT1], the protein stability index was 3.9 ± 0.25 under setting [1] and 3.89 ± 0.19 under setting [2].

With WGKRKNKPKMNYEKLSRGLRYYYD [ETS2], the protein stability index is, setting by setting: under setting [1], 2.52 ± 0.26; under setting [2], 2.51 ± 0.43.

On to WLYCYDPVMDVWARKQDMNTKRAI [KLHL14], for which the protein stability index is, setting by setting: under setting [1], 2.07 ± 0.28; under setting [2], 2.53 ± 0.55.

Turning to WMPPPSRADSFKVSYQLADGGEPQ [TNXB], the protein stability index is, setting by setting: under setting [1], 4.03 ± 0.44; under setting [2], 4.23 ± 0.64.

As to WSVTGKAEPAMPGRLYVHPDSPAT [TBX5], the protein stability index reads like this: under setting [1], 3.67 ± 0.17; under setting [2], 3.62 ± 0.22.

As to WTRITCAEEGWSPTPKCLRLCFFP [CFHR2], the protein stability index was found to be 2.82 ± 0.71 under setting [1] and 2.6 ± 0.46 under setting [2].

Sequence WYLKEEDHYQRVKREREKEDIALN [RHOBTB1] had a protein stability index under setting [1] of 3.94 ± 0.18 and a protein stability index under setting [2] of 3.955 ± 0.027.

For the sequence WYQVRCLFQSPLFAKAGDTLSGTC [CARM1], the protein stability index runs as follows: under setting [1], 2.77 ± 0.72; under setting [2], 2.35 ± 0.53.

Regarding WYSPYAKTLQPTKQPNCSSLFKLK [PLD5], the protein stability index reads like this: under setting [1], 2.32 ± 0.21; under setting [2], 2.79 ± 0.21.

As to YAPVGFCLLVLRLFLGIHVFLVSC [AUP1], the protein stability index was determined as 3.14 ± 1 under setting [1] and 2.88 ± 0.35 under setting [2].

Take YCLLSDHGCEYSCVNMDRSFACQC [MATN2]: the protein stability index under setting [1] turned out to be 2.81 ± 0.54 and the protein stability index under setting [2] worked out at 2.95 ± 0.59.

For the sequence YETKKHLVQLPNINRVSTCYSEEI [PPEF2], the protein stability index reads like this: under setting [1], 3.33 ± 0.32; under setting [2], 3.23 ± 0.53.

With YFTKSGFHPDPRQKALYRRLATVH [CLPTM1], the protein stability index under setting [1] came out at 2.12 ± 0.41 and the protein stability index under setting [2] was 2.35 ± 0.22.

YFYMSCLVKHKRIHSREKRGDSVK [ZNF649]: the protein stability index came to 1.73 ± 0.16 under setting [1] and 2.38 ± 0.55 under setting [2].

On to YGDWTSGENSDGCYEHFAELDIPQ [CLPTM1], for which the protein stability index reads like this: under setting [1], 4.54 ± 0.23; under setting [2], 4.63 ± 0.26.

YGLRGPHKADSIQGTARTLSPVLE [TNXB] showed a protein stability index under setting [1] of 3.93 ± 0.36 and a protein stability index under setting [2] of 3.84 ± 0.14.

For the sequence YIKVDWQRVEKDMKKAKEQLKIRK [FUNDC2], the protein stability index was 2.46 ± 0.61 under setting [1] and 2.94 ± 0.74 under setting [2].

On to YIPSYTSWYPSAHQEAMQQPQLM [DLX1], for which the protein stability index reads like this: under setting [3], 2.63 ± 0.36; under setting [4], 2.44 ± 0.26.

On to YLWMCSTLALLLNFLACLASFCVE [SCAMP3], for which the protein stability index under setting [1] is 3.53 ± 0.36 and the protein stability index under setting [2] stood at 3.02 ± 0.12.

For the sequence YMSINTHLGKEQSRRDDLEALGHM [CSNK1G1], the protein stability index is, setting by setting: under setting [1], 3.28 ± 0.19; under setting [2], 3.74 ± 0.29.

Consider YNNQSLGHGSHSFIYYENMLLGVP [PKD2L1], for which the protein stability index runs as follows: under setting [1], 2.16 ± 0.21; under setting [2], 2.23 ± 0.37.

With YQRFRQKSKASFLLLASGLVITDF [PTGFR], the protein stability index is, setting by setting: under setting [1], 2.65 ± 0.21; under setting [2], 2.49 ± 0.7.

YSEYPECCVDVKPISQEKIESERA [DUSP5] yielded a protein stability index under setting [1] of 4.57 ± 0.39 and a protein stability index under setting [2] of 4.69 ± 0.66.

In the case of YVEIRTFEPRLLVQSIELQRPRFI [VPS39], the protein stability index worked out at 2.33 ± 0.76 under setting [1] and 2.65 ± 0.7 under setting [2].

On to YVLEFSDHPGIHEPLEPEVKYVGN [CPN1], for which the protein stability index is, setting by setting: under setting [1], 3.17 ± 0.27; under setting [2], 3.3 ± 0.1.
